Tests used:
[1] = molecular target: site-specifically biotinylated IL-17RB, immobilized (human) (UniProt Q9NRM6); experiment: SPR; Biacore T100; about 300 RU of site-specifically biotinylated IL-17RB immobilized on a Series S Sensor Chip SA; regeneration 2 M MgCl2; steady-state affinity analysis
[2] = molecular target: T1, IL-17RB (18-502) fused to the ALFA-tag, on HeLa cells (human) (UniProt Q9NRM6)
T1 sequence: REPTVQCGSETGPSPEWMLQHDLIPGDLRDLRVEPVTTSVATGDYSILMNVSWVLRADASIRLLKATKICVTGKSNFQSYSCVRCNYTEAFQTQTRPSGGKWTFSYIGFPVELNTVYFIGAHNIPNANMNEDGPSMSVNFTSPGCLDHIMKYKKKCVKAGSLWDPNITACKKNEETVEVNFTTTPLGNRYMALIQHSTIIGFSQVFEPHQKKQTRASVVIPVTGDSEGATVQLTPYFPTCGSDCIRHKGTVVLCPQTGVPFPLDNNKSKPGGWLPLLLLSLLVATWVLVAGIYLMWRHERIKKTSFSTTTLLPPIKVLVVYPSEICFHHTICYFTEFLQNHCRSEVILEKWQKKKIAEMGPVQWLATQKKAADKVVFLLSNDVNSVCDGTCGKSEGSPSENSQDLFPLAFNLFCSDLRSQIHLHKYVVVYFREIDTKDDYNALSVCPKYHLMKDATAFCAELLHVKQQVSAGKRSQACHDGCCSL

IL-17RB (1-288) = molecular target: T2, IL-17RB (1-288) (human, UniProt Q9NRM6 18-288); experiment: cryo-EM structure; IL-25 and IL-17RB co-expressed in Expi293F GnTI- cells and co-purified; 2:2 complex (3.18 Å) and higher-order 6:6 complex (4.39 Å) from one sample; HBS 20/150 pH 7.4; conditions: both partners purified
T2 construct: signal peptide in the construct; IL-17 receptor B (IL-17RB), human, amino acids 1-288; Two constructs are named (C-terminal 3C-proteinC-8xHis in pVLAD6; C-terminal Avitag-6xHis in pD649); also called IL-17 receptor B; apo-IL-17RB
T2 sequence (looked up): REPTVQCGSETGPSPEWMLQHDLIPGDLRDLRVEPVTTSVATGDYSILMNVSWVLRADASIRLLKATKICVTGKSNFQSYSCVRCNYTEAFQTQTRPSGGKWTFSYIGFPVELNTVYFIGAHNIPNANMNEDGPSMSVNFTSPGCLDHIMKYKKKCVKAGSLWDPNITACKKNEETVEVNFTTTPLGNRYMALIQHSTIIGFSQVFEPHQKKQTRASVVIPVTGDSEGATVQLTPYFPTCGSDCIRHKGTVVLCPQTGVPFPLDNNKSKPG

“IL-17RA (1-317) (from UniProt Q96F46 33-317) (receptor)” gave a Kd [1] of 13.8 µM.

B1: IL-25 Y92A (ligand)
chain: THTYSHWPSCCPSKGQDTSEELLRWSTVPVPPLEPARPNRHPESCRASEDGPLNSRAISPWRAELDRDLNRLPQDLYHARCLCPHCVSLQTGSHMDPRGNSELLYHNQTVFYRRPCHGEKGTHKGYCLERRLYRVSLACVCVRPRVMG
Work on B1 yielded an NF-κB reporter (SEAP) HEK293 cells expressing IL-17RA, ACT1 and endogenous IL-17RB, varying concentrations of IL-25 mutant: EC50 shift relative to WT IL-25 [2] greater than 3 log-fold.

B2: IL-25 (amino acids 30-177) (ligand, human, UniProt Q9H293 30-177, looked up)
chain: THTYSHWPSCCPSKGQDTSEELLRWSTVPVPPLEPARPNRHPESCRASEDGPLNSRAISPWRYELDRDLNRLPQDLYHARCLCPHCVSLQTGSHMDPRGNSELLYHNQTVFYRRPCHGEKGTHKGYCLERRLYRVSLACVCVRPRVMG
notes: IL-25 (IL-17E), human, amino acids 30-177; Two constructs are named (Igk signal peptide with C-terminal 3C-cleavable Avitag-6xHis in pEG BacMam; HA signal peptide with C-terminal Avitag-6xHis in a lentiviral vector); also called IL-17E; WT IL-25
B2: binds (IL-17RB (1-288)).
